Molecular target: HLA-A*02:01 (Homo sapiens, UniProt P04439, D140Y/D185E/D98H/E176V/E277Q/G131W/G231S/I119V/I121R/I166T/I218V/L300P/L318F/N151K/N90K/P208A/P217A/Q86G/Q94H/R138H/R169H/T345S)
Assay: ELISA-based assay of affinity (KD) to HLA-A*02:01
Assay type: binding
Settings: FIG. 5

binding to HLA-A*02:01 (dissociation constant KD, in words)	Substance
strong binder	MET-001: control peptide, strong binder to HLA-A*02:01 (YVDPVITSI)
very good binding	KIQEILTQV [IGF2BP3-001, HLA-A*02-presented tumor-associated peptide]

From patent publication US10383931B2, “Peptides and combination of peptides for use in immunotherapy against cancers” (IMMATICS BIOTECHNOLOGIES GMBH, priority 2016, dated 2019)
